According to patent publication US11655492B2, “Activated formylglycine-generating enzymes and methods of producing and using the same” (R.P. Scherer Technologies, LLC, priority 2015, dated 2023):
“And” between values parts separate entries of the source, which are not always exact repeats. Equal values may be shown once. Read-outs that look alike come from different tables or passages of the source.

Legend:
Sc-FGE = Sc-FGE (Streptomyces coelicolor, UniProt Q9F3C7); assay type: biochemical, S. coelicolor
recombinant human FGE = biological target: T1, recombinant human FGE (Homo sapiens, UniProt Q8NBK3); assay: In vivo conversion in CHO cells expressing recombinant human FGE and αHER2 mAb, additives in culture medium
T1 sequence (Q8NBK3 34-374): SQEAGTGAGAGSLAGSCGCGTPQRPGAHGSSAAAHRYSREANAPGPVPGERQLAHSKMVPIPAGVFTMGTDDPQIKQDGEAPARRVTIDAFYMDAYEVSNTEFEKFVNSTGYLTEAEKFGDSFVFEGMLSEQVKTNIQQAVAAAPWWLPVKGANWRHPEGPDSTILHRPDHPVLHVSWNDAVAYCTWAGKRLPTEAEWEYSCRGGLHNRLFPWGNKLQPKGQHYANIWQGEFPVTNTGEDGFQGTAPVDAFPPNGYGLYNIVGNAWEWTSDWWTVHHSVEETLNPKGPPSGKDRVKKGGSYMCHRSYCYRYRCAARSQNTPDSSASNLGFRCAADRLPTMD
Description: The effect on conversion in the presence of Cu^2+ (copper sulfate) in the cell culture medium of mammalian cells expressing FGEs and proteins that include FGE recognition sites was investigated. CHO cells expressing a recombinant human FGE and recombinant αHER2 mAb (heavy and light chain in same cell) containing the FGE recognition sequence LCTPSR (SEQ ID NO:4) were cultured FortiCHO media with the CellBoost4 feed, Efficient Feed C, and Efficient Feed C, supplemented with glucose and/or galactose.
The experimental conditions were the same as those used in the Cu^2+ experiments above.

[1] = tested on: 14 amino acid peptide ALCTPSRGSLFTGR (SEQ ID NO:8); assay: Discontinuous FGE activity assay on peptide substrate (RP-HPLC); assay type: biochemical
Description: [formula] where Et is the total enzyme in solution, and kcat and KM are the standard enzymatic parameters specified by the STRENDA commission. Units of enzyme specific activity are the katal, where 1 kat=1 mol·s^−1. Kinetic parameters were determined from nonlinear regression of [substrate] v. initial velocity using GraphPad prism.
The specific activity of FGE was measuring using a discontinuous enzymatic activity assay. The substrate for FGE was a 14 amino acid peptide containing the consensus sequence (H2N-[…]-COOH (SEQ ID NO:8)). The rate of reaction was determined by integrating the peak area at 215 nm of the starting material (Cys) and product (fGly) containing peptides on reversed-phase HPLC. The identity of product (and side product) peaks were determined by RP-HPLC MS/MS. Each aqueous reaction solution (60 μL) contained substrate peptide (100 μM), FGE (1 μM), DTT (1 mM), and buffer (25 mM triethanolamine, pH 9). A single time course consisted of 5 data points collected every 2 minutes. The reaction was initiated upon addition of FGE stock solution and vortexing for 3 s. Time points were quenched by diluting 10 μL of reaction mixture into 1 μL of 1 M HCl by hand with a micropipettor. After completion of the reaction, each time point was analyzed by RP-HPLC.
(§1) Substrate, product, and side products of the FGE substrate peptide […] (SEQ ID NO:8) were separated on RP-HPLC over 7 min with isocratic 18% MeCN in water containing 0.1% TFA. The integrated area of the fGly (2.1 min), Cys (3.3 min), βME-DS (3.6 min), and Cys-DS (6.2 min) forms of the substrate were used to calculate total area and each fraction thereof.
The specific activity of FGE was measured using a discontinuous enzymatic activity assay. The substrate for FGE was a 14 amino acid peptide containing the CXPXR consensus sequence ([…] (SEQ ID NO:8)). The rate of reaction was determined by integrating the peak areas at 215 nm of the substrate cysteine (Csub) and product (fGly) peptides on reversed-phase HPLC. The identities of product (and side product) peaks were determined by RP-HPLC MS/MS (see below). Each aqueous reaction solution (120 μL) contained Csub (100 μM), FGE (0.1-1 μM), DTT (1 mM), and buffer (25 mM TEAM, pH 9). A single time course included 5 data points collected at evenly spaced intervals. The reaction was initiated upon addition of FGE stock solution and vortexing for 3 s. The reaction vial was vortexed at 1,500 RPM and 25° C. in a thermomixer R (Eppendorf). Time points were hand quenched by adding 20 μL of reaction mixture to 2 μL of 1 M HCl using a micropipettor. After completion of the reaction, each time point was analyzed by RP-HPLC (see below).
as §1, with “integrated areas” for “integrated area”, “min), Csub” for “min), Cys”, “min), the Csub/βME disulfide (Csub-βME, 3.6” for “min), βME-DS (3.6”, “and substrate/substrate disulfide (Csub-Csub, 6.1” for “and Cys-DS (6.2”
Individual FGE reactions were initiated by rapidly mixing FGE into a premixed buffered solution of Csub and reducing agent. It was assumed that all buffered solutions contained oxygen at ˜270 μM at 25° C. (based upon Henry's law). Time points were chemically quenched by hand with HCl. […]. The identities of both the Cys- and fGly-containing peptides were confirmed by LC-MS/MS (FIG. 11). These assignments were then correlated with HPLC retention times (FIG. 14, panel a). The integrated peak areas of substrate and product were used to calculate the initial velocity of FGE (FIG. 14, panel b) using the method described by Boeker (Biochem. J., (1984), 223, 15; and Biochem. J., (1985), 226, 29).

CT-1.1 tagged Her2 = assay: 293 Expi transient co-transfection of FGE form and CT tagged antibody, conversion by mass-spectrometry; assay type: cell-based; settings: Expi 293F, FGE form co-transfected with Her2 CT1.1, harvest day 5-6
Description: A 293 Expi transient co-transfection system (Life Technologies) was used for producing antibodies having a formylglycine residue at a selected site. The system produced high antibody titers (100-500 mg/L) with variable (10-95%) conversion. […] Expi 293F that were treated with or without 50 μM copper sulfate prior to transfection were transiently co-transfected in three independent experiments with expression plasmids for full-length human FGE with an N-terminal KDEL (SEQ ID NO:7) amino acid sequence (+KDEL) and CT tagged antibody at a ratio of 3:1 antibody:FGE DNA. The culture was harvested at 5-6 days post transfection, titer assessed by ELISA, and the protein was purified and conversion was measured by mass-spectrometry.
Expi 293F cells that were treated with or without 50 μM copper sulfate prior to transfection were transiently co-transfected with expression plasmids for various forms of human FGE (+KDEL, WT, myc-His) and CT tagged antibody at a ratio of 3:1 antibody:FGE DNA. The culture was harvested at 5 days post transfection, titer assessed by ELISA, the protein was purified and conversion was measured by mass-spectrometry.

[2] = other ion sources: iron sulfate 0.1 mM or 0.5 mM Day 3, MnCl2 50 uM or 10 uM Day 0, ZnCl2 50 uM Day 0
[3] = as purified from cell culture, not activated
[4] = nonlinear regression to Michaelis-Menten equation

O=C1O[C@H]([C@@H](O)CO)C(=O)C1=O [DHAA, (L)-dehydroascorbic acid]
effect of pretreatment on specific activity (Sc-FGE): did not change

[Cl][Mn][Cl] [MnCl2]
effect on conversion of the target polypeptide (recombinant human FGE; [2]): did not effect a detectable or significant increase

O=S(=O)([O-])[O-].[Fe+2] [iron sulfate, iron(II) sulfate]
effect on conversion of the target polypeptide (recombinant human FGE): did not effect a detectable or significant increase

[Cl-].[Cl-].[Zn+2] [ZnCl2]
effect on conversion of the target polypeptide (recombinant human FGE; [2]): did not effect a detectable or significant increase

CC(O)C(=O)O (centres unmarked) [lactate]
effect on conversion efficiency of the FGE (recombinant human FGE; potential stimulators of lactate consumption, lactate or pyruvate 1.5 g/L with feeds): did not increase conversion efficiency

B1: myc His: human FGE C-terminally tagged with myc-His (pRW529) (protein, UniProt Q8NBK3 34-374, looked up)
Formylglycine-generating …: SQEAGTGAGAGSLAGSCGCGTPQRPGAHGSSAAAHRYSREANAPGPVPGERQLAHSKMVPIPAGVFTMGTDDPQIKQDGEAPARRVTIDAFYMDAYEVSNTEFEKFVNSTGYLTEAEKFGDSFVFEGMLSEQVKTNIQQAVAAAPWWLPVKGANWRHPEGPDSTILHRPDHPVLHVSWNDAVAYCTWAGKRLPTEAEWEYSCRGGLHNRLFPWGNKLQPKGQHYANIWQGEFPVTNTGEDGFQGTAPVDAFPPNGYGLYNIVGNAWEWTSDWWTVHHSVEETLNPKGPPSGKDRVKKGGSYMCHRSYCYRYRCAARSQNTPDSSASNLGFRCAADRLPTMD
modifications: C-terminal myc-His tag
specific activity of FGE isolated from Cu^2+ treated cells vs untreated cells [1]: significantly higher activity | Conversion (%) (CT-1.1 tagged Her2; copper sulfate 50 μM at Day 0): 78% and 94%

B2: WT: WT form of human FGE, non-KDEL (protein, UniProt Q8NBK3 34-374, looked up)
Formylglycine-generating …: SQEAGTGAGAGSLAGSCGCGTPQRPGAHGSSAAAHRYSREANAPGPVPGERQLAHSKMVPIPAGVFTMGTDDPQIKQDGEAPARRVTIDAFYMDAYEVSNTEFEKFVNSTGYLTEAEKFGDSFVFEGMLSEQVKTNIQQAVAAAPWWLPVKGANWRHPEGPDSTILHRPDHPVLHVSWNDAVAYCTWAGKRLPTEAEWEYSCRGGLHNRLFPWGNKLQPKGQHYANIWQGEFPVTNTGEDGFQGTAPVDAFPPNGYGLYNIVGNAWEWTSDWWTVHHSVEETLNPKGPPSGKDRVKKGGSYMCHRSYCYRYRCAARSQNTPDSSASNLGFRCAADRLPTMD
Conversion (%) (CT-1.1 tagged Her2; copper sulfate 0 μM): 77% | Conversion (%) (CT-1.1 tagged Her2; copper sulfate 50 μM at Day 0): 86%

B3: Hs-FGE: full length wild-type human FGE containing the N-terminal extension and the core, UniProt Q8NBK3 (protein, UniProt Q8NBK3 1-374, looked up)
chain: MAAPALGLVCGRCPELGLVLLLLLLSLLCGAAGSQEAGTGAGAGSLAGSCGCGTPQRPGAHGSSAAAHRYSREANAPGPVPGERQLAHSKMVPIPAGVFTMGTDDPQIKQDGEAPARRVTIDAFYMDAYEVSNTEFEKFVNSTGYLTEAEKFGDSFVFEGMLSEQVKTNIQQAVAAAPWWLPVKGANWRHPEGPDSTILHRPDHPVLHVSWNDAVAYCTWAGKRLPTEAEWEYSCRGGLHNRLFPWGNKLQPKGQHYANIWQGEFPVTNTGEDGFQGTAPVDAFPPNGYGLYNIVGNAWEWTSDWWTVHHSVEETLNPKGPPSGKDRVKKGGSYMCHRSYCYRYRCAARSQNTPDSSASNLGFRCAADRLPTMD
modifications: full-length
notes: full length wild-type human FGE containing the N-terminal extension and the core, UniProt Q8NBK3
specific activity [1, 3]: 850 pkat·mg^−1

B4: +KDEL: full-length human FGE with an N-terminal KDEL (SEQ ID NO:7) amino acid sequence (protein, UniProt Q8NBK3 1-374, looked up)
chain: MAAPALGLVCGRCPELGLVLLLLLLSLLCGAAGSQEAGTGAGAGSLAGSCGCGTPQRPGAHGSSAAAHRYSREANAPGPVPGERQLAHSKMVPIPAGVFTMGTDDPQIKQDGEAPARRVTIDAFYMDAYEVSNTEFEKFVNSTGYLTEAEKFGDSFVFEGMLSEQVKTNIQQAVAAAPWWLPVKGANWRHPEGPDSTILHRPDHPVLHVSWNDAVAYCTWAGKRLPTEAEWEYSCRGGLHNRLFPWGNKLQPKGQHYANIWQGEFPVTNTGEDGFQGTAPVDAFPPNGYGLYNIVGNAWEWTSDWWTVHHSVEETLNPKGPPSGKDRVKKGGSYMCHRSYCYRYRCAARSQNTPDSSASNLGFRCAADRLPTMD
modifications: full-length N-terminal KDEL
Conversion (%) (CT-1.1 tagged Her2; copper sulfate 0 μM): 72% and 47% and 78% and 62% | Conversion (%) (CT-1.1 tagged Her2; copper sulfate 50 μM at Day 0): 93% and 94% and 95% and 88%

B5: Sc-FGE: Streptomyces coelicolor formylglycine-generating enzyme, UniProt Q9F3C7, N-terminal hexahistidine tag, expressed in E. coli (protein)
chain: MAVAAPSPAAAAEPGPAARPRSTRGQVRLPGGEFAMGDAFGEGYPADGETPVHTVRLRPFHIDETAVTNARFAAFVKATGHVTDAERFGSSAVFHLVVAAPDADVLGSAAGAPWWINVRGAHWRRPEGARSDITGRPNHPVVHVSWNDATAYARWAGKRLPTEAEWEYAARGGLAGRRYAWGDELTPGGRWRCNIWQGRFPHVNTAEDGHLSTAPVKSYRPNGHGLWNTAGNVWEWCSDWFSPTYYAESPTVDPHGPGTGAARVLRGGSYLCHDSYCNRYRVAARSSNTPDSSSGNLGFRCANDADLTSGSAAE
modifications: left off: small tags and cut ends
notes: Streptomyces coelicolor formylglycine-generating enzyme, UniProt Q9F3C7, N-terminal hexahistidine tag, expressed in E. coli
increase of specific activity on activation [1]: more than an order of magnitude | specific activity [1]: 3579±215 pkat·mg^−1 | specific activity [1, 3]: 214 pkat·mg^−1 and 214±34 pkat·mg^−1 | Km [1, 4]: 96 µM | kcat [1, 4]: 0.288 s⁻¹
